Test results as given in patent US20250326842A1.

Legend:
FcγRI (human) = FcγRI (human) (UniProt P12314); test: Biacore, KD from kinetic constants (koff/kon)
FcγRIIA H131 (human) = FcγRIIA H131 (human) (UniProt P12318); test: Biacore, KD from equilibrium analysis
FcγRIIB (human) = FcγRIIB (human) (UniProt P31994); test: Biacore, KD from equilibrium analysis
FcγRIIIA F158 (human) = FcγRIIIA F158 (human) (UniProt P08637); test: Biacore, KD from equilibrium analysis
FcγRIIA R131 (human) = FcγRIIA R131 (human) (UniProt P12318); test: Biacore, KD from equilibrium analysis
Human C1q (human) = Human C1q (human) (UniProt P02745); test: ELISA: plate coated with increasing amounts of antibody, human C1q at 8 µg/mL, anti-C1q antibody detection
Sequence of Human C1q (human) (P02745 23-245 limits assumed, chain 1 of 3): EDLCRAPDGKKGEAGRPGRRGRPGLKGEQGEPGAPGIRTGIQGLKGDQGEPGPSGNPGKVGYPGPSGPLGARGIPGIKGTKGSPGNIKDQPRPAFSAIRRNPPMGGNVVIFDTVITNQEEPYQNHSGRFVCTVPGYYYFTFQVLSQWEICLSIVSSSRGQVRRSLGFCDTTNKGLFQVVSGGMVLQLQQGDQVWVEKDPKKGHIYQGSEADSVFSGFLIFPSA
Sequence of Human C1q (human) (P02746 28-253 limits assumed, chain 2 of 3, further chain): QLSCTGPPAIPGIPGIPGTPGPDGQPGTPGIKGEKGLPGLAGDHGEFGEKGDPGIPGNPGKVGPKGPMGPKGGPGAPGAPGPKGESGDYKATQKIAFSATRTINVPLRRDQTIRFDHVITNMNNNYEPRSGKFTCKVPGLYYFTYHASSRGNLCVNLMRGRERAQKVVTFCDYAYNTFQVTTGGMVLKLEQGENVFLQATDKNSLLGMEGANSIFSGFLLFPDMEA
Sequence of Human C1q (human) (P02747 29-245 limits assumed, chain 3 of 3, further chain): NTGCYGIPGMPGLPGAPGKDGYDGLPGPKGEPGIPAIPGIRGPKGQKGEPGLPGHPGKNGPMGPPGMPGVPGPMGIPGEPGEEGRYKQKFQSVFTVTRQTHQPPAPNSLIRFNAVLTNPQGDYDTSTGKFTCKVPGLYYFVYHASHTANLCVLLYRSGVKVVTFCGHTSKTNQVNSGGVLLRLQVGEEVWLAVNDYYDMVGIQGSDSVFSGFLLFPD

Sequence of FcγRIIB (human) (P31994 46-217 limits assumed): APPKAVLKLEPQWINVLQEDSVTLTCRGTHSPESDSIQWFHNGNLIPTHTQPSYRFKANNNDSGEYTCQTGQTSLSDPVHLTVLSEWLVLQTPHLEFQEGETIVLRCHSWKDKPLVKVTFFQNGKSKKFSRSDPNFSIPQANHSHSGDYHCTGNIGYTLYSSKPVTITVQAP
Sequence of FcγRI (human) (P12314 16-288 limits assumed): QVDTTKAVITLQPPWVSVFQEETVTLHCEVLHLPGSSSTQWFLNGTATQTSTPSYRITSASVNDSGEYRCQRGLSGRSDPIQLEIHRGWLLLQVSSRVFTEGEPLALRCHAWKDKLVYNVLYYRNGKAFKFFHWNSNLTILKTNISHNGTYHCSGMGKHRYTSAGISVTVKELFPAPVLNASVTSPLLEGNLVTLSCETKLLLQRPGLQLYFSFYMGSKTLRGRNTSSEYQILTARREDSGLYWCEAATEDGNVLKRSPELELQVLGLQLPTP
Sequence of FcγRIIA R131 (human) (P12318 36-218 H167R limits assumed): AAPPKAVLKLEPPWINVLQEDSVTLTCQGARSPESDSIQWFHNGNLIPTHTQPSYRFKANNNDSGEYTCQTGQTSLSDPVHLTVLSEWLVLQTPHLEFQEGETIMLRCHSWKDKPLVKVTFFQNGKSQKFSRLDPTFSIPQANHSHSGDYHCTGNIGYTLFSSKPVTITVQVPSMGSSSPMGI
Sequence of FcγRIIIA F158 (human) (P08637 17-208 limits assumed): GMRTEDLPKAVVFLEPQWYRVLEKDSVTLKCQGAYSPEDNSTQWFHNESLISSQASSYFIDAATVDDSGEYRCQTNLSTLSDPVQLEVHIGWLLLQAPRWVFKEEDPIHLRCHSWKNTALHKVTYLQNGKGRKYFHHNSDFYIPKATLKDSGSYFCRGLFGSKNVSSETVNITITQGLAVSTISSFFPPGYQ
Sequence of FcγRIIA H131 (human) (P12318 36-218 limits assumed): as the sequence (P12318 36-218 H167R limits assumed) above, with R132H counted along it

Kd (FcγRI (human)): 2.7 nM | Kd (FcγRIIA H131 (human)): 379 nM | Kd (FcγRIIB (human)): 3.12 µM | Kd (FcγRIIIA F158 (human)): 691 nM | Kd (FcγRIIA R131 (human)): 481 nM | EC50 (read off the curve) (Human C1q (human)): 2 µg/mL
Substance: HuIgG (antibody)
